Measurements as given in patent US20160304586A1.

Target: hemagglutinin of influenza B virus (B/Brisbane/60/2008 BX-35) (Influenza B virus B/Brisbane/60/2008 BX-35)
Assay: cell-based or functional assay

B1: CR11039 (antibody, V domains shown)
VH: EVQLVQSGAEVKKPGESVKISCKTSGYAFTGYGISWVRQAPGQGLEWMGWINTYKFNTNYAQNLQGRVTMTIDTSTSAAYMELRSLRYEDTAVYFCARDWAGPFGNAFDVWGQGTMVTVSS
VL: IQMTQSPSSLSASIGDRVAITCQASQDISDYLNWYQQQPGKAPKLLLYGASNLETGVPSRFSGSGSGTDFTFTISSLQPEDIATYYCQQYGNLPPTFGGGTKLEIK
neutralizing capacity in MDCK cell culture, Experiment 5, CPE, undiluted virus: > 0.4 µg/mL
neutralizing capacity in MDCK cell culture, Experiment 6, CPE, undiluted virus: > 0.8 µg/mL
